Measured values taken from patent EP2670776B1 (F. Hoffmann-La Roche AG, dated 2018).

B1: Knob F241S/F243R (knob Fc with F241S/F243R mutations) (other, name in EU numbering)
chain: DKTHTSPPSPAPELLGGPSVSLRPPKPKDTLMISRTPEVTCVVVDVSHEDPEVKFNWYVDGVEVHNAKTKPREEQYNSTYRVVSVLTVLHQDWLNGKEYKCKVSNKALPAPIEKTISKAKGQPREPQVYTLPPSREEMTKNQVSLWCLVKGFYPSDIAVEWESNGQPENNYKTTPPVLDSDGSFFLYSKLTVDKSRWQQGNVFSCSVMHEALHNHYTQKSLSLSPGK
notes: Positions are EU numbers, not positions on the entry; also called F241S/F243R mutant knob

How the values were obtained:
[1] = target: B1; test: SPR (BioRad ProteOn), ligand hole wild-type immobilized on NHS activated sensor, analyte knob F241S/F243R 6.25-200 nM
hole F241S/F243R = target: T1, hole F241S/F243R (human, UniProt P0DOX5 223-449 = IgG part, F241S; F243R); test: SPR (BioRad ProteOn), ligand hole F241S/F243R immobilized on NHS activated sensor, analyte knob F241S/F243R 6.25-200 nM
T1 construct: SPR ligand named only 'hole F241S/F243R'; Positions are EU numbers

Kd [1] [nM]	Kd (hole F241S/F243R) [nM]	Binder
< 10	–	hole Fc, wild-type hole (single Fc chain, hinge cysteines mutated to serine) (other, IgG1 Fc with T366S, L368A, Y407V only, made in E. coli in the same manner as the knob/knob Fc; also called hole wild-type; hole/hole homodimer) DKTHTSPPSPAPELLGGPSVFLFPPKPKDTLMISRTPEVTCVVVDVSHEDPEVKFNWYVDGVEVHNAKTKPREEQYNSTYRVVSVLTVLHQDWLNGKEYKCKVSNKALPAPIEKTISKAKGQPREPQVYTLPPSREEMTKNQVSLSCAVKGFYPSDIAVEWESNGQPENNYKTTPPVLDSDGSFFLVSKLTVDKSRWQQGNVFSCSVMHEALHNHYTQKSLSLSPGK
–	< 10	B1
